Experimental data from article PMC3665621 (Nuclear medicine and biology, 2013).

Experiments:
cathepsin B = settings: room temperature, up to 96 hours
[1] = tested on: HPAC tumor-bearing SCID mice; settings: mouse, in vivo

| Substance | cleaved bond (cathepsin B) | increase of tumor accumulation from 24 h to 72 h post-injection [1] | lower liver retention compared to control (177Lu-MAC0) [1] |
| --- | --- | --- | --- |
| DO3A(tBu)3-G- (D)S(tBu)-(D)S(tBu)-G- G-G-F | G-G, 24 h | – | – |
| X = GSS, Y = PMGLP [177Lu-MAC2] | – | 113% | 2.1 fold |
